Measured values reported in publication PMC10316083, “Thermotoga maritima oriC involves a DNA unwinding element with distinct modules and a DnaA-oligomerizing region with a novel directional binding mode” (The Journal of Biological Chemistry, 2023).

Target: the molecule itself
Assay: native gel or EMSA; ATP-bound tmaDnaA on a 30 bp DNA (300 nM) with the oppositely oriented tmaDnaA boxes 2 and 3; complexes with one (C1) or two (C2) tmaDnaA molecules; 8% polyacrylamide gel, GelStar staining; self-interaction read from the preference for C2 on DNA

B1: Thermotoga maritima DnaA initiator (tmaDnaA), wildtype (natural protein, UniProt P46798 1-440, looked up)
chain: MKERILQEIKTRVNRKSWELWFSSFDVKSIEGNKVVFSVGNLFIKEWLEKKYYSVLSKAVKVVLGNDATFEITYEAFEPHSSYSEPLVKKRAVLLTPLNPDYTFENFVVGPGNSFAYHAALEVAKHPGRYNPLFIYGGVGLGKTHLLQSIGNYVVQNEPDLRVMYITSEKFLNDLVDSMKEGKLNEFREKYRKKVDILLIDDVQFLIGKTGVQTELFHTFNELHDSGKQIVICSDREPQKLSEFQDRLVSRFQMGLVAKLEPPDEETRKSIARKMLEIEHGELPEEVLNFVAENVDDNLRRLRGAIIKLLVYKETTGKEVDLKEAILLLKDFIKPNRVKAMDPIDELIEIVAKVTGVPREEILSNSRNVKALTARRIGMYVAKNYLKSSLRTIAEKFNRSHPVVVDSVKKVKDSLLKGNKQLKALIDEVIGEISRRALSG
notes: DnaA chromosomal replication initiator protein of Thermotoga maritima (tmaDnaA); also called WT tmaDnaA; ATP-tmaDnaA; source: purified as described previously (40); plasmid pTHMA-1
binding result: binds
